EC50 data for one substance are collected here from patent US20240327503A1.

The target in the experiment is SARS-CoV-2 spike ECD S-2P (SARS-CoV-2) (UniProt P0DTC2).

For the substance CR3022 (antibody), the EC50 – broadly, the midpoint of the concentration-response curve – worked out at 3.6 nM.
